Some results are limits rather than exact numbers.

Test [1] concerns the target human CCR5 expressed on DHFR-deficient CHO cells (CHO-CCR5) (human) (UniProt P51681).
Test [2] addresses CCR5 endogenously expressed on human blood-derived monocytes, monocyte-derived macrophages (MDMs) and T cell blasts (human (endogenous in blood monocytes, MDMs and T cell blasts)) (UniProt P51681).
Test [3] has the same target. This is another data set of the same source.

Chain of CCL5 (P13501 24-91): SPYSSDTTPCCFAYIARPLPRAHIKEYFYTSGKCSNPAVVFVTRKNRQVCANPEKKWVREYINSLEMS

As for “CCL5 (from UniProt P13501 24-91) (ligand)”, in test [1], the CCR5 down-modulation: reduction of the specific binding of each anti-CCR5 mAb to the surface of CHO-CCR5 cells after 1 h at 37°C with 100 nM CCL5, flow cytometry was 50%. With “PSC-RANTES: Nα(n-nonanoyl)-des-Ser(1)-[L-thioprolyl(2), L-cyclohexylglycyl(3)]-RANTES(4-68) (from UniProt P13501 27-91) (ligand)”, the CCR5 down-modulation on MDMs after overnight exposure to 100 nM ligand, detected with CTC5, flow cytometry in test [2] was above 50%. The substance also showed a CCR5 down-modulation on monocytes after overnight culture with 100 nM analog: reduction of the surface binding signal of MC5, 2D7 and CTC5, flow cytometry in test [3] of 50%. The like results for “amino-oxypentane (AOP)-RANTES (from UniProt P13501 24-91) (ligand)” were, in that order, above 50% and 50%.

Source of the values: PMC4560160.
